In the supplement of paper PMC12764529:
± gives the half width of the 95% confidence interval.

Legend:
[1] = folding stability dG unfold (combined trypsin and chymotrypsin); higher = more stable
Outline: (§1)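 Mini-proteins designed to be under 80 residues and free of cysteine were carried in a PA-tagged cDNA display construct and digested with trypsin and with chymotrypsin. Each protease was applied at 11 threefold-diluted concentrations, alongside a no-protease condition, before sequencing. K50 came from Bayesian fitting of the sequencing counts, and unfolding free energy was obtained by comparing it with a sequence-predicted unfolded-state K50 and a shared folded-state K50, for each protease separately or for both together. Designs were retained only if their AlphaFold2 dimer inter-PAE exceeded 15.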

[2] = folding stability dG unfold from chymotrypsin proteolysis; higher = more stable
Outline: as §1

[3] = folding stability dG unfold from trypsin proteolysis; higher = more stable
Outline: as §1

Sequence	folding stability dG unfold [1]	folding stability dG unfold [2]	folding stability dG unfold [3]
SAGGSAGGSAGGKPGEKKRYRFPAPKFELVSKVKVRVKVLNEDTNELYEKEVEVFVLKLTSAGGSAGGSAGG [r7_64_TrROS_Hall]	2.14 ± 0.21 kcal/mol	2.77 ± 0.16 kcal/mol	1.12 ± 0.045 kcal/mol
SAGGSAGGSEKIKEALKELGYDVEIEEIEVKKNKNGKLEIKIKLKPGMSEEEKKRIEEALKKLSAGGSAGGS [r12_352_TrROS_Hall]	2.84 ± 0.3 kcal/mol	2.79 ± 0.17 kcal/mol	3.18 ± 0.4 kcal/mol
SAGGSAPAKVEPLRVKIEFTPPNGEKHTFPMEIHRVHDNAIEIQDGGQPIRIPPNLDNIQITDIELSAGGSA [r15_510_TrROS]	0.356 ± 0.14 kcal/mol	0.558 ± 0.044 kcal/mol	-0.614 ± 0.34 kcal/mol
SAGGSAGGSAPPDEGQKWVPVTFPIEFPLPDGNKVKIPIDFWYPKEDGKPIAMQIEWWAKNSAGGSAGGSAG [r3_484_TrROS]	0.72 ± 0.26 kcal/mol	1.42 ± 0.22 kcal/mol	0.373 ± 0.13 kcal/mol
SWTFPILIRFPFDDPEDLDKAREMAEDLVRYLAEEFGWPVKIDKVKYERNPENGWVWIRAEITVTPPDDVSA [r9_105_TrROS]	4.9 ± 0.11 kcal/mol	5.31 ± 0.098 kcal/mol	3.62 ± 0.08 kcal/mol
SAGGSAGGSAGGSDTPGNYKKVKITLKRVTLGDNNTPKVETVELEVTVPPNYTLEDVLSSAGGSAGGSAGGS [r4_283_TrMRF]	1.14 ± 0.16 kcal/mol	1.1 ± 0.14 kcal/mol	0.976 ± 0.072 kcal/mol
SAGGSAGGSAWRLYIGGQKIEIPPGGPVKLERHKNGWVKIEIKMPGGRKKEFTIPIPPGATSAGGSAGGSAG [r3_207_TrROS]	1.66 ± 0.18 kcal/mol	1.76 ± 0.17 kcal/mol	1.23 ± 0.14 kcal/mol
SAGGILDLAAERNAVSVEVLEVNPEPPTVTVRLTYRNAAGEPRTATFTVELPPPAPPVPLVLPGEATFSAGG [r13_608_TrMRF]	1.85 ± 0.089 kcal/mol	2.46 ± 0.11 kcal/mol	0.735 ± 0.059 kcal/mol
SAGGSAGGSAGKEYYVVAKVEDPSTGKVTVYVGPFSDFVKTFDPKNSKVEFFLVEKDALKSAGGSAGGSAGG [r11_334_TrMRF]	2.89 ± 0.077 kcal/mol	3.31 ± 0.044 kcal/mol	1.87 ± 0.073 kcal/mol
SMSVSTSTEKLPTDLYITEKEIKIEPVDPTKNVYRVTVKTTIVDKNGNVVKEEEKEEIIPLSELEKRIKSSA [r9_234_JUSTAS]	1.54 ± 0.28 kcal/mol	1.61 ± 0.1 kcal/mol	1.2 ± 0.085 kcal/mol
SAGGSAGGSAGGMKITLTVPSEEEIEALTPPDAKITEIKKIGKDPVKGLPYYEVVLDPSSAGGSAGGSAGGS [r10_256_JUSTAS]	0.0912 ± 0.14 kcal/mol	0.411 ± 0.033 kcal/mol	-1.42 ± 0.44 kcal/mol
SAGGSAGGSRLGLEEFERIAREIAEELGISDLVAEVEELEDDYALLTIYNPETGEKLEILVPGSAGGSAGGS [r12_1000_TrMRF]	1.07 ± 0.09 kcal/mol	0.898 ± 0.025 kcal/mol	1.13 ± 0.053 kcal/mol
SAGGKATVTITEVKVETETVTLKYDPETGELVEKTETVTRVEVKTITIEADKNPELAEELLKKLGIESAGGS [r16_467_TrROS_Hall]	2.56 ± 0.28 kcal/mol	2.93 ± 0.25 kcal/mol	1.69 ± 0.11 kcal/mol
SAGGSAGGSLEKIKEALKKAGYPPENVVIEVKTLPNGEIVITVKYNGKEIPKEIVEEAIKKLKSAGGSAGGS [r12_175_JUSTAS]	3.45 ± 0.066 kcal/mol	3.72 ± 0.08 kcal/mol	2.69 ± 0.081 kcal/mol
MPDISRAEIKALAEKLGLPVPDGTITIKFTYGDKTITVPVDAKKDITLGDIVEAIKKKNPNIKKIEIVAEPS [r1_135_TrMRF]	0.907 ± 0.077 kcal/mol	0.808 ± 0.08 kcal/mol	0.956 ± 0.044 kcal/mol
SAGGSAGGSMKLEVEAELEVPLPNGKPKRFKVKFRVEPGESGVKVEVLEVDDPLVVEAIKKLFSAGGSAGGS [r12_743_TrMRF]	2.65 ± 0.096 kcal/mol	3 ± 0.072 kcal/mol	2.2 ± 0.034 kcal/mol
SAGGSAGGSAGGSTRDFLVKDPSNGQWYKVTATTDPAGAVTITFPETGEVVPLEGLVVSPSAGGSAGGSAGG [r11_301_JUSTAS]	1.43 ± 0.042 kcal/mol	1.338 ± 0.012 kcal/mol	1.47 ± 0.046 kcal/mol
SAGGSAGGMEEIEIEINGKKAKIYRLPGDEDLFLIEVDGELYLVKVKKKDGKWEIVEVKKLDELSAGGSAGG [r6_915_TrROS_Hall]	4.13 ± 0.16 kcal/mol	4.25 ± 0.091 kcal/mol	4.17 ± 0.29 kcal/mol
SAGDVVEIEITYWVPPDEMTVDEFVDHIMSMLPGVKVKSIEIDEIHPYPDGWYEVTVNYTIEVPPGQEISAG [r5_682_TrROS]	2.81 ± 0.16 kcal/mol	2.82 ± 0.12 kcal/mol	2.53 ± 0.39 kcal/mol
SAGGSAMETIELKLEDGSTLTIERDPENPNTLTITFEDGRKITVTADSAEEALKKALELAKEGKLPSAGGSA [r15_38_TrROS_Hall]	4.6 ± 0.17 kcal/mol	4.58 ± 0.16 kcal/mol	4.36 ± 0.33 kcal/mol
SAGGKKTVKIEIVLPKEELEELLKKLLEEAKKKGLKVEVKVELKEVEVEVNGKKKKVLVLKVEIKVEPSAGG [r13_974_TrROS_Hall]	3.55 ± 0.19 kcal/mol	3.76 ± 0.14 kcal/mol	3.17 ± 0.12 kcal/mol

Sequence	folding stability dG unfold [1]	folding stability dG unfold [2]	folding stability dG unfold [3]
SAGGMIVLEFPDGKIVFVEPVSEFTTPDGKKVRLVKVIVTDPLTGKSTIIEREVLPGGGVKEKVTPESAGGS [r16_651_JUSTAS]	1.49 ± 0.13 kcal/mol	1.32 ± 0.043 kcal/mol	1.89 ± 0.042 kcal/mol
SPPETETYPIPNPEDGKPLMDITIERNPENGNWKVEIYWPGGKKKEVEFPPNETIPIDDLPPGFWVTITRSA [r9_1150_TrROS]	1.21 ± 0.16 kcal/mol	1.56 ± 0.069 kcal/mol	0.532 ± 0.12 kcal/mol
SGSPDELEVVESEETVNIPPEELEAKYGIKVPENSTVVIKTKTLKPPSGNDIVEPEIKIYDPVTNEWIELSA [r9_349_JUSTAS]	-0.47 ± 0.25 kcal/mol	-0.474 ± 0.27 kcal/mol	-0.537 ± 0.13 kcal/mol
SAGGSAKRYFIMIDIRYPGDGKEIYPLVIPIPPGEPISIEDILDEIGFPPENADNVDIEIHTFRAKSAGGSA [r15_665_TrROS]	1.51 ± 0.22 kcal/mol	1.57 ± 0.14 kcal/mol	1.56 ± 0.078 kcal/mol
SAGGSAGGKPKVVELELTTEDGSKVRVVFTEDSVYIYNEETGLLVKYNLKTGKFELKEVYPLEESAGGSAGG [r6_462_TrROS_Hall]	2.92 ± 0.28 kcal/mol	3.24 ± 0.055 kcal/mol	2.15 ± 0.15 kcal/mol
SAGGSAGGSAGGMELELTFATPEQAVEYAERFERLGYEVEVEYYPETGLVRVRVRLYPEESAGGSAGGSAGG [r7_623_TrMRF]	3.76 ± 0.074 kcal/mol	3.6 ± 0.072 kcal/mol	3.97 ± 0.11 kcal/mol
SAGGSAGGSEAKIELEYDEETNTLTVRIEVDGELYEERIEVTIEPAPPPPPPVEVVVVELPEESAGGSAGGS [r12_70_TrROS_Hall]	2.4 ± 0.49 kcal/mol	2.71 ± 0.21 kcal/mol	1.56 ± 0.55 kcal/mol
SAGGSAGGSAGNWKIKNIEPVRLPNNVHIMKFQIPGRSLIFVFDPKNGQKRWIPLKDIKPSAGGSAGGSAGG [r17_286_TrROS]	-0.0705 ± 0.09 kcal/mol	-0.0752 ± 0.14 kcal/mol	-0.301 ± 0.25 kcal/mol
SAGGMILKITIPKEDEEKAKELADELAKKLEEETGKPIKVKVKVEKNENGELTIVIEVDGKKIEIKLSAGGS [r16_356_TrROS_Hall]	0.999 ± 0.27 kcal/mol	0.444 ± 0.078 kcal/mol	1.32 ± 0.091 kcal/mol
SAGGSAGGMRLVVEDFDEEEMEEVERRVREFAEEHDVEVDIYRRRRPDGRVVLVVEIRPKEDLPSAGGSAGG [r6_906_TrMRF]	2.95 ± 0.052 kcal/mol	3.02 ± 0.034 kcal/mol	2.87 ± 0.058 kcal/mol
SAGGSAGGSAGGGSSGVSYGSVPIVIRDPSGNVVSTLTLRVYPDGTVVLEFPDGSLLLLSAGGSAGGSAGGS [r10_972_JUSTAS]	3.86 ± 0.087 kcal/mol	4.11 ± 0.045 kcal/mol	3.38 ± 0.081 kcal/mol
SSSSMKTITLEKKITSPEEAEALREELLKKGYEVEVKVYPHPDSYIAKITVTIEVPPPPLSPTNPSALLKSA [r9_863_JUSTAS]	0.967 ± 0.22 kcal/mol	0.913 ± 0.2 kcal/mol	1.19 ± 0.061 kcal/mol
SAGGSAMKIKRDNGKVRIEIDFPPEMKNPERMLMNIRSAINENPNKPIKVTMPPGHREWAKRLLKESAGGSA [r15_89_TrROS]	-0.248 ± 0.24 kcal/mol	-0.686 ± 0.44 kcal/mol	0.219 ± 0.19 kcal/mol
SAMTPEFFETIKEASREGDIAAVLEAAEAIKTEFPDTGLTVDVVIEPREDDRFVIEVRVDYPPNLEGLASAG [r14_690_TrMRF]	-0.0704 ± 0.18 kcal/mol	-0.212 ± 0.11 kcal/mol	-0.142 ± 0.039 kcal/mol
SAGGSAGGEMTAEELAEKLAEELKEKGYEVEVEVVEVEVEEDTVRIKIKLKDGRELEIELKIEPSAGGSAGG [r6_617_TrROS_Hall]	2.74 ± 0.25 kcal/mol	2.79 ± 0.28 kcal/mol	2.58 ± 0.16 kcal/mol
SAGGSAGGSAMRLEIELENGLKIEIELEVNEDGELKMKIKIEPLPPVPEVVVTKVVKLEEESAGGSAGGSAG [r3_15_TrROS_Hall]	1.98 ± 0.39 kcal/mol	1.69 ± 0.12 kcal/mol	1.72 ± 0.29 kcal/mol
SAGSSLNILLELETPEEAEKEAARIKEEIPKKGISVTVTIVSKEELEKLLKENVIELPNGSLKLVLFPSAGG [r19_187_JUSTAS]	0.218 ± 0.25 kcal/mol	0.138 ± 0.19 kcal/mol	0.201 ± 0.11 kcal/mol
SAGGSAGGSAGLLPIEELLKKNPEPVTFMVKDNDTLYRIEITPKDGKWTIEIEPLPGMKPSAGGSAGGSAGG [r11_549_TrROS]	1.2 ± 0.043 kcal/mol	1.49 ± 0.077 kcal/mol	0.756 ± 0.021 kcal/mol
SAGGSAGGSAGMTVEVVKSVVPTKTNETVIVTTVTEVEPPTGKVTTLETKTVSTANPELLSAGGSAGGSAGG [r11_777_JUSTAS]	-0.369 ± 0.23 kcal/mol	-0.395 ± 0.11 kcal/mol	-0.755 ± 0.12 kcal/mol
SAGGSAGGMVIHEIEVESPDPEKAEEEAKARAEEIRKALEEEEGGIPGEVKFVPTPEEDPLLLLSAGGSAGG [r6_23_JUSTAS]	1.43 ± 0.13 kcal/mol	0.834 ± 0.075 kcal/mol	1.99 ± 0.13 kcal/mol
SAGGSAMPLLIVDKNNNVTLISASSPEELEELLKKYNIKKIEPFPFPDGKALVFIAEYPDGIIYSGSAGGSA [r15_632_TrMRF]	1.52 ± 0.049 kcal/mol	1.65 ± 0.047 kcal/mol	1.3 ± 0.02 kcal/mol
